Numbered stars: 1 amine (or outer) side, 2 acyl side, 3 side chain; on linkers, the order of the positions; unused ones are H or OH. Bridge positions count the residues as written; N and C are the ends. Side chains are listed from the residue outwards. Ends that are not written are not given here. * marks the point of attachment. C20 diacid = O=C(O)CCCCCCCCCCCCCCCCCCC(=O)*; γGlu = O=C(O)[C@H](CCC(=O)[*:2])N[*:1]; AEEA = NCCOCCOCC(=O)O
T1: human calcitonin receptor (human, UniProt P30988 25-474)
T1 sequence (looked up): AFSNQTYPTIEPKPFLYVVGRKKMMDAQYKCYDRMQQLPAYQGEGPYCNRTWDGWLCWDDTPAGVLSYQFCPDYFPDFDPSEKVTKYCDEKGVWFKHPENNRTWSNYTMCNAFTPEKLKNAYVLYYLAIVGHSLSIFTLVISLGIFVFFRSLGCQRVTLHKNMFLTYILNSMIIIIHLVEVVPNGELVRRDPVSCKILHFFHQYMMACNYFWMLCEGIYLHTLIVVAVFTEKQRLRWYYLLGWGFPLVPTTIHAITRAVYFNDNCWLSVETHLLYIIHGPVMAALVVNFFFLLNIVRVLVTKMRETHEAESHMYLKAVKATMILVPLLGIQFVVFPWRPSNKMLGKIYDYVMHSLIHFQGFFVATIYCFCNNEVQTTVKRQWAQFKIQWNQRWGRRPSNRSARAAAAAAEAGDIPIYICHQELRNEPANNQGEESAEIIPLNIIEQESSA

B1: N^ε-[(4S)-4-carboxy-4-(19-carboxynonadecanoylamino)butanoyl]Lys[Arg1,Arg17,Pro21,Pro27,His35]-h-amylin (peptide)
peptide: K([γGlu-C20 diacid])RCNTATCATQRLANFLRHSSPNFGAIPSSTNVGSHTY-NH2
modifications: disulfide 3-8; N-terminus assumed
SMILES: CC[C@H](C)[C@H](NC(=O)[C@H](C)NC(=O)CNC(=O)[C@H](Cc1ccccc1)NC(=O)[C@H](CC(N)=O)NC(=O)[C@@H]1CCCN1C(=O)[C@H](CO)NC(=O)[C@H](CO)NC(=O)[C@H](Cc1c[nH]cn1)NC(=O)[C@H](CCCNC(=N)N)NC(=O)[C@H](CC(C)C)NC(=O)[C@H](Cc1ccccc1)NC(=O)[C@H](CC(N)=O)NC(=O)[C@H](C)NC(=O)[C@H](CC(C)C)NC(=O)[C@H](CCCNC(=N)N)NC(=O)[C@H](CCC(N)=O)NC(=O)[C@@H](NC(=O)[C@H](C)NC(=O)[C@@H]1CSSC[C@H](NC(=O)[C@H](CCCNC(=N)N)NC(=O)[C@@H](N)CCCCNC(=O)CC[C@H](NC(=O)CCCCCCCCCCCCCCCCCCC(=O)O)C(=O)O)C(=O)N[C@@H](CC(N)=O)C(=O)N[C@@H]([C@@H](C)O)C(=O)N[C@@H](C)C(=O)N[C@@H]([C@@H](C)O)C(=O)N1)[C@@H](C)O)C(=O)N1CCC[C@H]1C(=O)N[C@@H](CO)C(=O)N[C@@H](CO)C(=O)N[C@H](C(=O)N[C@@H](CC(N)=O)C(=O)N[C@H](C(=O)NCC(=O)N[C@@H](CO)C(=O)N[C@@H](Cc1c[nH]cn1)C(=O)N[C@H](C(=O)N[C@@H](Cc1ccc(O)cc1)C(N)=O)[C@@H](C)O)C(C)C)[C@@H](C)O
notes: analogue of human amylin, extended by Lys at the N-terminus; also called compound 44
B2: N^-1-[(4S)-4-carboxy-4-(19-carboxynonadecanoylamino)butanoyl]-Gly[Arg1,Arg17,Pro21,Pro27]-h-amylin (peptide)
peptide: {C20 diacid-γGlu}-GRCNTATCATQRLANFLRHSSPNFGAIPSSTNVGSNTY-NH2
modifications: disulfide 3-8
SMILES: CC[C@H](C)[C@H](NC(=O)[C@H](C)NC(=O)CNC(=O)[C@H](Cc1ccccc1)NC(=O)[C@H](CC(N)=O)NC(=O)[C@@H]1CCCN1C(=O)[C@H](CO)NC(=O)[C@H](CO)NC(=O)[C@H](Cc1c[nH]cn1)NC(=O)[C@H](CCCNC(=N)N)NC(=O)[C@H](CC(C)C)NC(=O)[C@H](Cc1ccccc1)NC(=O)[C@H](CC(N)=O)NC(=O)[C@H](C)NC(=O)[C@H](CC(C)C)NC(=O)[C@H](CCCNC(=N)N)NC(=O)[C@H](CCC(N)=O)NC(=O)[C@@H](NC(=O)[C@H](C)NC(=O)[C@@H]1CSSC[C@H](NC(=O)[C@H](CCCNC(=N)N)NC(=O)CNC(=O)CC[C@H](NC(=O)CCCCCCCCCCCCCCCCCCC(=O)O)C(=O)O)C(=O)N[C@@H](CC(N)=O)C(=O)N[C@@H]([C@@H](C)O)C(=O)N[C@@H](C)C(=O)N[C@@H]([C@@H](C)O)C(=O)N1)[C@@H](C)O)C(=O)N1CCC[C@H]1C(=O)N[C@@H](CO)C(=O)N[C@@H](CO)C(=O)N[C@H](C(=O)N[C@@H](CC(N)=O)C(=O)N[C@H](C(=O)NCC(=O)N[C@@H](CO)C(=O)N[C@@H](CC(N)=O)C(=O)N[C@H](C(=O)N[C@@H](Cc1ccc(O)cc1)C(N)=O)[C@@H](C)O)C(C)C)[C@@H](C)O
notes: analogue of human amylin, extended by Gly at the N-terminus; also called compound 46
B3: N^ε1-[2-[2-[2-[[(4S)-4-carboxy-4-(19-carboxynonadecanoylamino)butanoyl]amino]ethoxy]ethoxy]acetyl]-[Arg17,Pro21,Pro27]-h-amylin (peptide)
peptide: K([AEEA-γGlu-C20 diacid])CNTATCATQRLANFLRHSSPNFGAIPSSTNVGSNTY-NH2
modifications: disulfide 2-7; N-terminus assumed
SMILES: CC[C@H](C)[C@H](NC(=O)[C@H](C)NC(=O)CNC(=O)[C@H](Cc1ccccc1)NC(=O)[C@H](CC(N)=O)NC(=O)[C@@H]1CCCN1C(=O)[C@H](CO)NC(=O)[C@H](CO)NC(=O)[C@H](Cc1c[nH]cn1)NC(=O)[C@H](CCCNC(=N)N)NC(=O)[C@H](CC(C)C)NC(=O)[C@H](Cc1ccccc1)NC(=O)[C@H](CC(N)=O)NC(=O)[C@H](C)NC(=O)[C@H](CC(C)C)NC(=O)[C@H](CCCNC(=N)N)NC(=O)[C@H](CCC(N)=O)NC(=O)[C@@H](NC(=O)[C@H](C)NC(=O)[C@@H]1CSSC[C@H](NC(=O)[C@@H](N)CCCCNC(=O)COCCOCCNC(=O)CC[C@H](NC(=O)CCCCCCCCCCCCCCCCCCC(=O)O)C(=O)O)C(=O)N[C@@H](CC(N)=O)C(=O)N[C@@H]([C@@H](C)O)C(=O)N[C@@H](C)C(=O)N[C@@H]([C@@H](C)O)C(=O)N1)[C@@H](C)O)C(=O)N1CCC[C@H]1C(=O)N[C@@H](CO)C(=O)N[C@@H](CO)C(=O)N[C@H](C(=O)N[C@@H](CC(N)=O)C(=O)N[C@H](C(=O)NCC(=O)N[C@@H](CO)C(=O)N[C@@H](CC(N)=O)C(=O)N[C@H](C(=O)N[C@@H](Cc1ccc(O)cc1)C(N)=O)[C@@H](C)O)C(C)C)[C@@H](C)O
notes: analogue of human amylin; also called compound 41
B4: N^ε1-[(4S)-4-carboxy-4-[[(4S)-4-carboxy-4-(19-carboxynonadecanoylamino)butanoyl]amino]butanoyl]-[Asp14,Arg17,Pro21,Pro27,Asp35]-h-amylin (peptide)
peptide: K([γGlu-γGlu-C20 diacid])CNTATCATQRLADFLRHSSPNFGAIPSSTNVGSDTY-NH2
modifications: disulfide 2-7; N-terminus assumed
SMILES: CC[C@H](C)[C@H](NC(=O)[C@H](C)NC(=O)CNC(=O)[C@H](Cc1ccccc1)NC(=O)[C@H](CC(N)=O)NC(=O)[C@@H]1CCCN1C(=O)[C@H](CO)NC(=O)[C@H](CO)NC(=O)[C@H](Cc1c[nH]cn1)NC(=O)[C@H](CCCNC(=N)N)NC(=O)[C@H](CC(C)C)NC(=O)[C@H](Cc1ccccc1)NC(=O)[C@H](CC(=O)O)NC(=O)[C@H](C)NC(=O)[C@H](CC(C)C)NC(=O)[C@H](CCCNC(=N)N)NC(=O)[C@H](CCC(N)=O)NC(=O)[C@@H](NC(=O)[C@H](C)NC(=O)[C@@H]1CSSC[C@H](NC(=O)[C@@H](N)CCCCNC(=O)CC[C@H](NC(=O)CC[C@H](NC(=O)CCCCCCCCCCCCCCCCCCC(=O)O)C(=O)O)C(=O)O)C(=O)N[C@@H](CC(N)=O)C(=O)N[C@@H]([C@@H](C)O)C(=O)N[C@@H](C)C(=O)N[C@@H]([C@@H](C)O)C(=O)N1)[C@@H](C)O)C(=O)N1CCC[C@H]1C(=O)N[C@@H](CO)C(=O)N[C@@H](CO)C(=O)N[C@H](C(=O)N[C@@H](CC(N)=O)C(=O)N[C@H](C(=O)NCC(=O)N[C@@H](CO)C(=O)N[C@@H](CC(=O)O)C(=O)N[C@H](C(=O)N[C@@H](Cc1ccc(O)cc1)C(N)=O)[C@@H](C)O)C(C)C)[C@@H](C)O
notes: analogue of human amylin; also called compound 2
B5: N^ε-[2-[2-[2-[[(4S)-4-carboxy-4-(19-carboxynonadecanoylamino)butanoyl]amino]ethoxy]ethoxy]acetyl]Lys[Arg1,Arg17,Pro21,Pro27,His35]-h-amylin (peptide)
peptide: K([AEEA-γGlu-C20 diacid])RCNTATCATQRLANFLRHSSPNFGAIPSSTNVGSHTY-NH2
modifications: disulfide 3-8; N-terminus assumed
SMILES: CC[C@H](C)[C@H](NC(=O)[C@H](C)NC(=O)CNC(=O)[C@H](Cc1ccccc1)NC(=O)[C@H](CC(N)=O)NC(=O)[C@@H]1CCCN1C(=O)[C@H](CO)NC(=O)[C@H](CO)NC(=O)[C@H](Cc1c[nH]cn1)NC(=O)[C@H](CCCNC(=N)N)NC(=O)[C@H](CC(C)C)NC(=O)[C@H](Cc1ccccc1)NC(=O)[C@H](CC(N)=O)NC(=O)[C@H](C)NC(=O)[C@H](CC(C)C)NC(=O)[C@H](CCCNC(=N)N)NC(=O)[C@H](CCC(N)=O)NC(=O)[C@@H](NC(=O)[C@H](C)NC(=O)[C@@H]1CSSC[C@H](NC(=O)[C@H](CCCNC(=N)N)NC(=O)[C@@H](N)CCCCNC(=O)COCCOCCNC(=O)CC[C@H](NC(=O)CCCCCCCCCCCCCCCCCCC(=O)O)C(=O)O)C(=O)N[C@@H](CC(N)=O)C(=O)N[C@@H]([C@@H](C)O)C(=O)N[C@@H](C)C(=O)N[C@@H]([C@@H](C)O)C(=O)N1)[C@@H](C)O)C(=O)N1CCC[C@H]1C(=O)N[C@@H](CO)C(=O)N[C@@H](CO)C(=O)N[C@H](C(=O)N[C@@H](CC(N)=O)C(=O)N[C@H](C(=O)NCC(=O)N[C@@H](CO)C(=O)N[C@@H](Cc1c[nH]cn1)C(=O)N[C@H](C(=O)N[C@@H](Cc1ccc(O)cc1)C(N)=O)[C@@H](C)O)C(C)C)[C@@H](C)O
notes: analogue of human amylin, extended by Lys at the N-terminus; also called compound 45
B6: N^ε1-[(4S)-4-carboxy-4-(19-carboxynonadecanoylamino)butanoyl]-[Arg17,Pro21,Pro27]-h-amylin (peptide)
peptide: K([γGlu-C20 diacid])CNTATCATQRLANFLRHSSPNFGAIPSSTNVGSNTY-NH2
modifications: disulfide 2-7; N-terminus assumed
SMILES: CC[C@H](C)[C@H](NC(=O)[C@H](C)NC(=O)CNC(=O)[C@H](Cc1ccccc1)NC(=O)[C@H](CC(N)=O)NC(=O)[C@@H]1CCCN1C(=O)[C@H](CO)NC(=O)[C@H](CO)NC(=O)[C@H](Cc1c[nH]cn1)NC(=O)[C@H](CCCNC(=N)N)NC(=O)[C@H](CC(C)C)NC(=O)[C@H](Cc1ccccc1)NC(=O)[C@H](CC(N)=O)NC(=O)[C@H](C)NC(=O)[C@H](CC(C)C)NC(=O)[C@H](CCCNC(=N)N)NC(=O)[C@H](CCC(N)=O)NC(=O)[C@@H](NC(=O)[C@H](C)NC(=O)[C@@H]1CSSC[C@H](NC(=O)[C@@H](N)CCCCNC(=O)CC[C@H](NC(=O)CCCCCCCCCCCCCCCCCCC(=O)O)C(=O)O)C(=O)N[C@@H](CC(N)=O)C(=O)N[C@@H]([C@@H](C)O)C(=O)N[C@@H](C)C(=O)N[C@@H]([C@@H](C)O)C(=O)N1)[C@@H](C)O)C(=O)N1CCC[C@H]1C(=O)N[C@@H](CO)C(=O)N[C@@H](CO)C(=O)N[C@H](C(=O)N[C@@H](CC(N)=O)C(=O)N[C@H](C(=O)NCC(=O)N[C@@H](CO)C(=O)N[C@@H](CC(N)=O)C(=O)N[C@H](C(=O)N[C@@H](Cc1ccc(O)cc1)C(N)=O)[C@@H](C)O)C(C)C)[C@@H](C)O
notes: analogue of human amylin; also called compound 48

These binders were tested against T1, human calcitonin receptor (assay: cell-based or functional assay).

First: B1
Second: B2
The “hCTR funct. EC50” value of the first is 5.3-fold higher: 4.75 nM for the first, 0.899 nM for the second.

B3 and B4 are within 1.5-fold of each other in “hCTR funct. EC50” value: 4.35 nM for the first, 3 nM for the second.

Going from B5 to B6, the “hCTR funct. EC50” value falls from 10.1 nM to 1.97 nM (5.1-fold).
